Residues, ends and D or L forms follow the SMILES beside them. *: point of attachment. Doxorubicin(3'-N) = COc1cccc2c1C(=O)c1c(O)c3c(c(O)c1C2=O)C[C@@](O)(C(=O)CO)C[C@@H]3O[C@H]1C[C@H](N*)[C@H](O)[C@H](C)O1
Assays:
4T1 tumor-bearing mice [1] = test: survival analysis; format: in vivo, mouse; details: treated once every three days; saline group 18 days
Description: 4T1 tumor-bearing mice were randomly divided into four groups: (i) saline; (ii) free DOX; (iii) free DOX with anti-PD-L1 antibody; and (iv) PD-NPs. Then, mice were treated once every three days, with free DOX or PD-NPs (3 mg/kg based on DOX contents), at which time tumor volumes had reached 60 - 80 mm^3. The anti-PD-L1 antibody (10 mg/kg) was i.p. injected simultaneously with free DOX into mice. Antitumor efficacy was assessed by measuring tumor volumes, calculated as largest diameter x smallest diameter^2 x 0.53, every 2 days. For the analysis of antitumor immune responses, tumor tissues were collected on day 7, and single cells were isolated from tumor tissues using a Tumor Dissociation Kit. Following cell counting, the single cells were incubated with FcBlock at 37 °C for 5 min to avoid non-specific antibody binding. […] In order to assay the concentration of cytokines in the tumor microenvironment, the IFN-γ and TNF-α in the tumor supernatants were assessed using commercialized ELISA assay kits (Catalog # SMIF00 and SMTA00B, respectively, R&D systems).
The statistical significance between two groups was analyzed using Student's t-test. One-way analysis of variance (ANOVA) was performed for comparisons of more than two groups, and multiple comparisons were analyzed using Tukey-Kramer post-hoc test. Survival data was plotted as Kaplan-Meier curves and analyzed using log-rank test. […]

4T1 tumor-bearing mice [2] = test: in vivo tumor inhibition; design: species or system mouse; details: once every three days; DOX or PD-NPs i.v. 3 mg/kg based on DOX contents, antibody i.p. 10 mg/kg; saline 1655.9 ± 319.94
Description: 4T1 tumor-bearing mice were randomly divided into four groups: (i) saline; (ii) free DOX; (iii) free DOX with anti-PD-L1 antibody; and (iv) PD-NPs. Then, mice were treated once every three days, with free DOX or PD-NPs (3 mg/kg based on DOX contents), at which time tumor volumes had reached 60 - 80 mm^3. The anti-PD-L1 antibody (10 mg/kg) was i.p. injected simultaneously with free DOX into mice. Antitumor efficacy was assessed by measuring tumor volumes, calculated as largest diameter x smallest diameter^2 x 0.53, every 2 days. For the analysis of antitumor immune responses, tumor tissues were collected on day 7, and single cells were isolated from tumor tissues using a Tumor Dissociation Kit. Following cell counting, the single cells were incubated with FcBlock at 37 °C for 5 min to avoid non-specific antibody binding. Then, multi-parameter staining was performed for 40 min to assess the following populations in tumor tissues; (i) PD-L1^+ cancer cells (CD45^-PD-L1^+); (ii) CRT^+ cancer cells (CD45^-CRT^+); (iii) CD8^+ T cells (CD45^+CD3^+CD8^+); and (iv) regulatory T cells (Tregs; CD45^+CD3^+CD4^+CD25^+). In order to assay the concentration of cytokines in the tumor microenvironment, the IFN-γ and TNF-α in the tumor supernatants were assessed using commercialized ELISA assay kits (Catalog # SMIF00 and SMTA00B, respectively, R&D systems).

4T1 cells = test: cytotoxicity, CCK-8 assay; format: cell-based; details: 4T1, HUVEC and H9C2 cells, 24 h treatment
Description: (§1) The cytotoxicity of PD-NPs was assessed by cell counting kit-8 (CCK-8) assays. First, 1 x 10^4 4T1, HUVEC, H9C2, BMDMs, BMDCs or CD8^+ T cells were seeded in 96-well cell culture plates. After 24 h of stabilization, the PD-NPs or free DOX were treated with each cell for 24 h. Then, the cells were further incubated with culture medium containing CCK-8 solution (10%) for 20 min, and cell viability was measured by a microplate reader with 450 nm of wavelength (VERSAmaxTM; Molecular Devices Corp., USA).

[3] = test system: PD-L1 in IFN-γ-treated 4T1 cells; test: PD-L1 expression by western blot; format: cell-based; details: 4T1 cells pre-treated with IFN-γ 20 ng/mL 24 h, then 2 μM for 24 h
Description: PD-L1 expression in 4T1 cells after different treatment was analyzed via western blot. Briefly, 1 × 10^6 4T1 cells were seeded in 6-well cell culture plates with RPMI medium containing 10% FBS and 1% antibiotics. After 24 h of stabilization, the cells were pre-treated with IFN-γ (20 ng/mL) for 24 h and further incubated with equal molar dose (2 μM) of free DOX, PD-NPs, anti-PD-L1 antibody or anti-PD-L1 peptide ([…]) for 24 h. Then, each cell was solubilized with lysis buffer containing 1% protease inhibitors, and the lysates were centrifuged at 10,000 rpm for 15 min to remove cell debris. Proteins in lysates were quantified via BCA protein quantification kit (Thermo Fisher scientific, USA), and then separated by sodium dodecyl sulfate-polyacrylamide (SDS-PAGE) gel electrophoresis and transferred onto polyvinylidene difluoride (PVDF) membranes. Membranes were incubated with TBS-T containing 5% bovine serum albumin (BSA) for 50 min to block non-specific IgG binding and incubated with anti-mouse PD-L1 primary antibody ([…]) for 12 h at 4 °C. Then, membranes were further incubated with HRP-conjugated anti-rabbit IgG antibody for 90 min at room temperature. Finally, immunoreactive bands were observed via enhanced chemiluminescence (ECL) system.

4T1 tumor-bearing mice [4] = test: toxicity study (body weight, blood analyses); format: in vivo, mouse; details: for blood analyses, hematological parameters (AST, ALT, BUN, CK, WBC, NEUT, LYMP): blood collected on day 16, treated once every three days; for body weights during treatment: treated once every three days
Description: The in vivo toxicity of PD-NPs was assessed by hematological analyses. Briefly, free DOX or PD-NPs (3 mg/kg based on DOX contents) were intravenously injected once every three days, and anti-PD-L1 antibody (10 mg/kg) was simultaneously i.p. injected into mice. Then, blood samples were collected from mice on day 16. For complete blood counts (CBCs), each blood sample was mixed with EDTA and a portion of each blood sample was centrifuged at 1,000 xg for 20 min, and then supernatants were stored at 4 °C. The following factors in blood samples were measured; aspartate transaminase (AST), alanine aminotransferase (ALT), blood urea nitrogen (BUN), creatinine kinase-MB (CK-MB), white blood cell (WBC), neutrophil (NEUT) and lymphocytes (LYMP).

cathepsin B = biological target: T1, cathepsin B (Homo sapiens, UniProt P07858); test: enzyme cleavage assay, HPLC; format: in vitro ADME
T1 construct: purchased R&D systems
Description: The purity and molecular weight were analyzed using HPLC and matrix-assisted laser desorption/ionization time of flight mass spectrometer (MALDI-TOF, AB Sciex TOF/TOF 5800 System, USA) with cyano-4-hydroycinnamic acid (CHCA) matrix, respectively. The average size of PD-NPs in saline (1 mg/mL) was determined via dynamic light scattering (DLS; Zetasizer Nano ZS Malvern Instruments, UK). The morphology of nanoparticles in distilled water (1 mg/mL) was observed by transmission electron microscope (TEM; CM-200, USA). As a control, the cathepsin B-cleaved PD-NPs were also observed using TEM, wherein PD-NPs (1mg/mL) were pre-incubated with cathepsin B (10 μg) at 37 °C for 24 h. Enzyme cleavage assays were performed by incubating PD-NPs (10 μM) with cathepsin B, cathepsin D, cathepsin E, caspase-3 and caspase-9 (10 μg) in MES buffer (0.1 M, pH 5.5). As a control experiment, PD-NPs (10 μM) were also pre-incubated with irreversible cathepsin B inhibitor (Z-FA-FMK; 50 μΜ) in MES buffer and then further incubated with cathepsin B. Enzyme reaction buffer was analyzed by HPLC using an acetonitrile: H2O gradient from 20:80 (0 min) to 80:20 (20 min). In vitro drug release from the PD-NPs was further investigated under both physiological and enzymatic conditions. For these analyses, PD-NPs dispersed in the mouse serum (1 mg/mL) were loaded in membrane (Molecular weight cut off: 2000 Da; Dialysis membrane Spectra/Por® 7 MWCO 2000, 18 mm; Carl Roth, Karlsruhe, Germany) in the presence or absence of cathepsin B enzyme (10 μg). After incubation, peptide-DOX or free DOX released to the outer membrane was analyzed using HPLC. Fluorescence profiles of PD-NPs (10 μM) in saline was analyzed by fluorescence spectrophotometer (F-7000, Hitachi).

4T1 tumor-bearing mice [5] = test: biodistribution by NIRF imaging; format: in vivo, mouse; details: 24 h after injection, 3 mg/kg based on DOX contents
Description: The 6-week female BALB/c mice were purchased from NaraBio (Gyeonggi-do, Republic of Korea). Mice were bred under pathogen-free conditions in the Korea Institute of Science and Technology (KIST). All experiments with animals were performed in compliance with the relevant laws and institutional guidelines of Institutional Animal Care and Use Committee (IACUC; approved number of 2020-123) in Korea Institute of Science and Technology (KIST). The in vivo biodistribution of PD-NPs was assessed in 4T1 tumor-bearing mice, which were prepared by subcutaneous inoculation of 1 x 10^7 4T1 cells. […] Noninvasive near-infrared fluorescence (NIRF) imaging was performed using an IVIS Lumina Series III system (PerkinElmer; Waltham, MA, USA) after 1, 6 and 24 h of injection. Fluorescence intensity in tumor regions was quantified using a Living Image software (PerkinElmer; Waltham, MA, USA). For ex vivo fluorescence imaging, mice were sacrificed after 24 h of injection, followed by extraction of liver, lung, spleen, kidney, heart and tumor tissues. Fluorescence intensity in tissues was analyzed using an IVIS Lumina Series III system. […] Slide-mounted tumor sections were stained with APC fluorescent dye-conjugated CD31 or PD-L1 antibody at 4 °C for 12 h, after which tumor tissues were analyzed using a Leica TCS SP8 confocal laser-scanning microscope.

DCs = test: cytotoxicity against immune cells, CCK-8 assay; format: cell-based, mouse; details: 24 h treatment, P < 0.001
Description: (§2) 4T1 ([…]), HUVEC (human umbilical vein endothelial cells) and H9C2 (rat BDIX heart myoblasts) cells were maintained in RPMI-1640, Endothelial cell growth medium (EGM) or Dulbecco's Modified Eagle Medium (DMEM) supplemented with 10% (v/v) fetal bovine serum (FBS), 1% streptomycin and 100 U/mL penicillin, respectively. Bone marrow-derived macrophages (BMDMs) and bone marrow-derived dendritic cells (BMDCs) were prepared by isolating bone marrow cells from BALB/c mice. Then, bone marrow cells were differentiated into BMDMs by incubating with M-CSF (Macrophage colony-stimulating factor, 20 ng/mL) for 7 days, or were differentiated into BMDCs by culturing for 7 days in the presence of GM-CSF (20 ng/mL), IL4 (20 ng/mL) and 0.1% β-mercaptoethanol. After isolation, BMDMs and BMDCs were maintained in RPMI-1640 medium supplemented with 10% (v/v) FBS, 1% streptomycin, and 100 U/mL penicillin.
as §1, with “After 24 h of stabilization, the PD-NPs or free DOX were treated with each cell for 24 h.” left out

T lymphocytes = test: cytotoxicity against immune cells, CCK-8 assay; format: cell-based, mouse; details: 24 h treatment, P < 0.001
Description: as §1

macrophages = format: cell-based, mouse
Description: as §2
as §1, with “After 24 h of stabilization, the PD-NPs or free DOX were treated with each cell for 24 h.” left out

Compound | median survival (4T1 tumor-bearing mice [1]) | tumor volume on day 16 (4T1 tumor-bearing mice [2]) | cytotoxicity in three types of cells (4T1 cells) | PD-L1 expression [3] | blood analyses, hematological parameters (AST, ALT, BUN, CK, WBC, NEUT, LYMP) (4T1 tumor-bearing mice [4]) | body weights during treatment (4T1 tumor-bearing mice [4]) | cleavage by cathepsin B (cathepsin B; cathepsin B 10 μg, pH 5.5 MES buffer, 0, 6, 12 and 24 h, HPLC) | accumulation in the liver tissues versus free DOX (4T1 tumor-bearing mice [5]; ex vivo NIRF imaging) | accumulation at tumor tissues compared to free DOX (4T1 tumor-bearing mice [5]; i.v., NIRF) | cytotoxicity compared to free DOX (DCs) | cytotoxicity compared to free DOX (T lymphocytes) | cytotoxicity compared to free DOX (macrophages) | cleaved by cathepsin B (cathepsin B; 10 μM, cathepsin B 10 μg, MES buffer 0.1 M pH 5.5, 6 h post-incubation, HPLC) | cleavage in cathepsin B-suppressed condition (cathepsin B; cathepsin B with irreversible inhibitor Z-FA-FMK 50 μM, MES buffer pH 5.5, HPLC)
COc1cccc2c1C(=O)c1c(O)c3c(c(O)c1C2=O)C[C@@](O)(C(=O)CO)C[C@@H]3O[C@H]1C[C@H](N)[C@H](O)[C@H](C)O1.Cl [free DOX, Doxorubicin hydrochloride] | 20 days | 1028.73 ± 218.15 mm^3 | indiscriminate cytotoxicity with similar IC50 | further increased | severe cardiac, renal and hepatic toxicity | severe body weight loss |  |  |  |  |  |  |  | 
COc1cccc2c1C(=O)c1c(O)c3c(c(O)c1C2=O)C[C@@](O)(C(=O)CO)C[C@@H]3O[C@H]1C[C@H](NC(=O)CNC(=O)[C@H](CCCNC(=N)N)NC(=O)CNC(=O)[C@H](Cc2ccccc2)NC(=O)[C@H](CCCNC(=N)N)NC(=O)[C@@H](NC(=O)[C@H](CCCNC(=N)N)NC(=O)[C@H](C)NC(=O)[C@H](CCCNC(=N)N)NC(=O)[C@@H](NC(=O)[C@H](CS)NC(C)=O)C(C)C)[C@@H](C)O)[C@H](O)[C@H](C)O1 [CVRARTR-FGRG-DOX] (Ac-CVRARTRFGRG-{Doxorubicin(3'-N)}) |  |  |  |  |  |  | not cleaved |  |  |  |  |  |  | 
COc1cccc2c1C(=O)c1c(O)c3c(c(O)c1C2=O)C[C@@](O)(C(=O)CO)C[C@@H]3O[C@H]1C[C@H](NC(=O)CNC(=O)[C@H](CCCNC(=N)N)NC(=O)[C@H](CCCNC(=N)N)NC(=O)[C@H](Cc2ccccc2)NC(=O)[C@H](CCCNC(=N)N)NC(=O)[C@@H](NC(=O)[C@H](CCCNC(=N)N)NC(=O)[C@H](C)NC(=O)[C@H](CCCNC(=N)N)NC(=O)[C@@H](NC(=O)[C@H](CS)NC(C)=O)C(C)C)[C@@H](C)O)[C@H](O)[C@H](C)O1 [PD-NPs] (Ac-CVRARTRFRRG-{Doxorubicin(3'-N)}) |  |  |  |  | in normal range | gradually increased |  | significantly higher accumulation | 4.01-4.48 times | significantly reduced | significantly reduced | significantly reduced | approximately 99% | not cleaved

From publication PMC8899589, “Anti-PD-L1 peptide-conjugated prodrug nanoparticles for targeted cancer immunotherapy combining PD-L1 blockade with immunogenic cell death” (Theranostics, 2022)
